# T1: bovine PD-1-His (soluble bovine PD-1 extracellular region with 6xHis tag) (bovine)
# T1 chain: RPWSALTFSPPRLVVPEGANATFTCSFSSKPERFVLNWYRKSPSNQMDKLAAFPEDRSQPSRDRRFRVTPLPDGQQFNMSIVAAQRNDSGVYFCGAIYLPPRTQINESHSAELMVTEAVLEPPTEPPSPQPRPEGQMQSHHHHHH
# T2: bovine FcγRII-His (soluble extracellular region with 6xHis tag) (bovine, UniProt Q28110 43-225)
# T2 construct: extracellular domain; also called boFcγRII-His
# T2 sequence: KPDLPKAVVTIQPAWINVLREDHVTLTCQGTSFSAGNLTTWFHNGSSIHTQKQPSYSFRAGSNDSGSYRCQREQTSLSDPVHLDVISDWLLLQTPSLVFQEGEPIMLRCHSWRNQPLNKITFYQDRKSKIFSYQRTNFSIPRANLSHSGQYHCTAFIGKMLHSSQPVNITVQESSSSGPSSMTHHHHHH
# B1: rat anti-bovine PD-1 monoclonal antibody 5D2 (antibody, V domains shown)
# VH: QVQLKETGPGLVQPTQTLSITCTVSGFSLTSYYIQWVRQTPGKGLEWMGFIRSGGSTEYNSEFKSRLSINRDTSKNQVFLKMNSLKTEDTGVYYCARTSSGYEGGFDYWGQGVMVTVSS
# VL: DVVLTQTPVSLSVTLGDQASISCRSSQSLEYSDGYTYLEWYLQKPGQSPQLLIYGVSNRFSGVPDRFIGSGSGTDFTLKISRVEPEDLGVYYCFQATHDPDTFGAGTKLELK
# notes: Rat monoclonal antibody from a hybridoma; Rat IgG2a (kappa) was used as its isotype control; also called rat anti-bovine PD-1 antibody 5D2
# B2: rat-bovine chimeric anti-bovine PD-1 antibody ch5D2 having wild-type bovine IgG1 (IgG1 WT) (antibody)
# heavy: QVQLKETGPGLVQPTQTLSITCTVSGFSLTSYYIQWVRQTPGKGLEWMGFIRSGGSTEYNSEFKSRLSINRDTSKNQVFLKMNSLKTEDTGVYYCARTSSGYEGGFDYWGQGVMVTVSSASTTAPKVYPLSSCCGDKSSSTVTLGCLVSSYMPEPVTVTWNSGALKSGVHTFPAVLQSSGLYSLSSMVTVPGSTSGQTFTCNVAHPASSTKVDKAVDPTCKPSPCDCCPPPELPGGPSVFIFPPKPKDTLTISGTPEVTCVVVDVGHDDPEVKFSWFVDDVEVNTATTKPREEQFNSTYRVVSALRIQHQDWTGGKEFKCKVHNEGLPAPIVRTISRTKGPAREPQVYVLAPPQEELSKSTVSLTCMVTSFYPDYIAVEWQRNGQPESEDKYGTTPPQLDADSSYFLYSKLRVDRNSWQEGDTYTCVVMHEALHNHYTQKSTSKSAGK
# light: DVVLTQTPVSLSVTLGDQASISCRSSQSLEYSDGYTYLEWYLQKPGQSPQLLIYGVSNRFSGVPDRFIGSGSGTDFTLKISRVEPEDLGVYYCFQATHDPDTFGAGTKLELKQPKSPPSVTLFPPSTEELNGNKATLVCLISDFYPGSVTVVWKADGSTITRNVETTRASKQSNSKYAASSYLSLTSSDWKSKGSYSCEVTHEGSTVTKTVKPSECS
# notes: also called ch5D2 IgG1 WT
# B3: rat-bovine chimeric anti-bovine PD-1 antibody ch5D2 (mutated bovine IgG1, IgG1 ADCC-) (antibody)
# heavy: QVQLKETGPGLVQPTQTLSITCTVSGFSLTSYYIQWVRQTPGKGLEWMGFIRSGGSTEYNSEFKSRLSINRDTSKNQVFLKMNSLKTEDTGVYYCARTSSGYEGGFDYWGQGVMVTVSSASTTAPKVYPLSSCCGDKSSSTVTLGCLVSSYMPEPVTVTWNSGALKSGVHTFPAVLQSSGLYSLSSMVTVPGSTSGQTFTCNVAHPASSTKVDKAVDPTCKPSPCDCCPPPPVAGPSVFIFPPKPKDTLTISGTPEVTCVVVDVGHDDPEVKFSWFVDDVEVNTATTKPREEQFNSTYRVVSALRIQHQDWTGGKEFKCKVHNEGLPSSIVRTISRTKGPAREPQVYVLAPPQEELSKSTVSLTCMVTSFYPDYIAVEWQRNGQPESEDKYGTTPPQLDADSSYFLYSKLRVDRNSWQEGDTYTCVVMHEALHNHYTQKSTSKSAGK
# light: DVVLTQTPVSLSVTLGDQASISCRSSQSLEYSDGYTYLEWYLQKPGQSPQLLIYGVSNRFSGVPDRFIGSGSGTDFTLKISRVEPEDLGVYYCFQATHDPDTFGAGTKLELKQPKSPPSVTLFPPSTEELNGNKATLVCLISDFYPGSVTVVWKADGSTITRNVETTRASKQSNSKYAASSYLSLTSSDWKSKGSYSCEVTHEGSTVTKTVKPSECS
# notes: Rat 5D2 variable regions on bovine IgG1 (modified from GenBank X62916) and bovine Ig lambda (X62917); also called ch5D2 IgG1 ADCC-
# Key:
# [1] = target: T1, bovine PD-1-His (soluble bovine PD-1 …); experiment: SPR (Biacore X100), bovine PD-1-His immobilized on CM5 chip, antibody as analyte, single kinetics, n=3
# Procedure: The binding avidities to bovine PD-1 of rat anti-bovine PD-1 antibody 5D2 and rat-bovine chimeric anti-bovine PD-1 antibody ch5D2 were measured by surface plasmon resonance using a bimolecular interaction analyzer (Biacore X100). Briefly, bovine PD-1-His (described above) was immobilized on a CM5 sensor chip (GE Healthcare) as a ligand. Subsequently, rat anti-bovine PD-1 antibody 5D2 or rat-bovine chimeric anti-bovine PD-1 antibody ch5D2 was reacted as an analyte, followed by single kinetics analysis. The experiment was repeated 3 times under the same conditions. Binding constant (kd value) and dissociation constant (ka value) were determined in each experiment, and binding avidity (KD value) was obtained.
# [2] = target: T3, bovine FcγRI-His (soluble extracellular region with 6xHis tag) (bovine); experiment: ELISA: antibody immobilized at 1.56 to 50 nM, bovine FcγRI-His added at 10 µg/ml, anti-polyhistidine detection [A]
# T3 construct: extracellular domain; also called boFcγRI-His; not shown: limits not st
# Procedure: (§1) Subsequently, each well was washed with […] of 0.05% Tween 20-supplemented PBS (PBS-T) five times, followed by blocking with SuperBlock (PBS) Blocking Buffer (Thermo Fisher Scientific) at 37° C. for 30 min, Each well was washed again in the same manner. Then, bovine FcγRI-His, FcγRII-His, FcγRIII-His or Fcγ2R-His was added to each well at a final concentration of 10 μg/ml and reacted at 37° C. for 1 hr. After washing, anti-polyhistidine tag mouse monoclonal antibody (Abeam) was reacted at 37° C. for 30 min. Subsequently, each well was washed, and horseradish peroxidase-labeled anti-mouse IgG goat polyclonal antibody (MP Biomedicals) was reacted at 37° C. for 30 min. Each well was washed again, and then TMB One Component Substrate (Bethyl) was added for coloring. Thereafter, the enzyme reaction was terminated with 0.18 M dilute sulfuric acid, and absorbance (450 nm) was measured with Microplate Reader MTP-900 (Corona Electric), For every plate washing operation, Auto Plate Washer BIO WASHER 50 (DS Pharma Biomedical) was used.
# [3] = target: T2, bovine FcγRII-His (soluble …); experiment: ELISA: antibody immobilized at 1.56 to 50 nM, bovine FcγRII-His added at 10 µg/ml, anti-polyhistidine detection [B]
# Procedure: as §1
Binder,Kd [1] [nM],koff [1] [s⁻¹],kon [1] [M⁻¹ s⁻¹],EC50 (read off the curve) [2] [nM],binding result [3]
B1,12.2,0.000215,18400,–,–
B2,–,–,–,~9,binds
B3,10.5,0.000216,20700,–,no binding (tested: 50 nM)

# Reference: US20190185568A1 (FUSO PHARMACEUTICAL INDUSTRIES, published 2019)
